The results in this text go back to patent publication US20180030116A1 (Amgen, published 2018).

What all share (assay): cell-based or functional assay
The target of experiment [1] is T1, MMP2 (human, UniProt P08253 30-660).
T1 sequence (looked up): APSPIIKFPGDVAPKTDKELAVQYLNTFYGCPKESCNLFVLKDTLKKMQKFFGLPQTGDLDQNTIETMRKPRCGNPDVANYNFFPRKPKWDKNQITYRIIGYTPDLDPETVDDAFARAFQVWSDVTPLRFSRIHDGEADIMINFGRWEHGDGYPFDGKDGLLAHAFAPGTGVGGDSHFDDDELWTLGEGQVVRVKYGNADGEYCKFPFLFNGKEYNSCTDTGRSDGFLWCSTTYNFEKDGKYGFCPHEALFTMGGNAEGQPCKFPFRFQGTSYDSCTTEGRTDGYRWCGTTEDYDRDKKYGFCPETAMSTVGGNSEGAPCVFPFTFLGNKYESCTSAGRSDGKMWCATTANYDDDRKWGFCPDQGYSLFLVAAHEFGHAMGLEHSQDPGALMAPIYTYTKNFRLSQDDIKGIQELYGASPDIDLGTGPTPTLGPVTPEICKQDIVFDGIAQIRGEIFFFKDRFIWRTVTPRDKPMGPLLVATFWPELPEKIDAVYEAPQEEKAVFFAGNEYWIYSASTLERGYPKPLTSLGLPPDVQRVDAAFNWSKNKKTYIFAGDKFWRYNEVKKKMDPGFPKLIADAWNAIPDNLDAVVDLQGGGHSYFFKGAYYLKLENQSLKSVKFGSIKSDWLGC

The target of experiment [2] is T2, MMP9 (human, UniProt P14780 107-457, limits assumed).
T2 sequence (P14780 107-457 limits assumed): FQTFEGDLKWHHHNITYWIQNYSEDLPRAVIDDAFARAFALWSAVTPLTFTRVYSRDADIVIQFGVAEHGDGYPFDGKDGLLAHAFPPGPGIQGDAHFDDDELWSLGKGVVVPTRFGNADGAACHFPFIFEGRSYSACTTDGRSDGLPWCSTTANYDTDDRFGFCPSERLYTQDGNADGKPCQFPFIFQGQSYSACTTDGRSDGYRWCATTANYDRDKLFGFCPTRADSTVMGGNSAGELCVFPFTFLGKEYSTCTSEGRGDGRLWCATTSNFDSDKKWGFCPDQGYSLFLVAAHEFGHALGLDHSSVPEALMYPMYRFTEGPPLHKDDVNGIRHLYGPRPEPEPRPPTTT
Experiment [3] concerns the target T1, MMP2. The source holds these as a separate data set.
The target of experiment [4] is T2, MMP9. The source holds these as a separate data set.
The target in experiment [5] is TNF alpha converting enzyme (TACE) (UniProt P78536 215-671, limits assumed).
Chain of TNF alpha converting enzyme (TACE) (P78536 215-671 limits assumed): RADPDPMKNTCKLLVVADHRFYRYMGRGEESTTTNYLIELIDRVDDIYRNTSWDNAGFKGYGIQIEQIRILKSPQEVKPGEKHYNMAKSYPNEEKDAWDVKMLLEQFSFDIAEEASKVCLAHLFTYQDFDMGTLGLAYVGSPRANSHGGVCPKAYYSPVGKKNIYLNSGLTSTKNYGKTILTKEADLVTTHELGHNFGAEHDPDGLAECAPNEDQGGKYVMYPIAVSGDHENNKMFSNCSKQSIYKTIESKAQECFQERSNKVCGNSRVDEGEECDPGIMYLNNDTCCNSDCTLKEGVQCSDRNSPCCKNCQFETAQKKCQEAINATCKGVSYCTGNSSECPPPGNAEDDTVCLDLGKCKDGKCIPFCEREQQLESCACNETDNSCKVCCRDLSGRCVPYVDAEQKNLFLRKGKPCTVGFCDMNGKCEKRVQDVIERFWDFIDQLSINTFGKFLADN

B1: TIMP-3 [H78N, Q80T, K94N, E96T, D110N, K112T, R138T] (SEQ ID NO:26) (other)
chain: CTCSPSHPQDAFCNSDIVIRAKVVGKKLVKEGPFGTLVYTIKQMKMYRGFTKMPNVTYIHTEASESLCGLNLTVNKYQYLLTGRVYNGTMYTGLCNFVERWDQLTLSQRKGLNYTYHLGCNCKIKSCYYLPCFVTSKNECLWTDMLSNFGYPGYQSKHYACIRQKGGYCSWYRGWAPPDKSIINATDP
modifications: 4 engineered N-linked glycosylation sites (# EG, Table 2)
Take B1: the “MMP2 EC50 (inhibition of MMP activity, FRET peptide substrate)” value with MMP2 [1] stood at 1 nM. The “MMP9 EC50 (inhibition of MMP activity, FRET peptide substrate)” value in the experiment with MMP9 [2] is 2.5 nM. In addition, the “shift in MMP2 inhibitory activity (fold decrease) as compared to wild-type” value in the experiment with MMP2 [3] was 2 fold decrease vs wild-type. Besides, the “shift in MMP9 inhibitory activity (fold decrease) as compared to wild-type” value with MMP9 [4] was 6 fold decrease vs wild-type. In addition, in experiment [5], the “shift in TACE inhibitory activity (fold decrease) as compared to wild-type” value is 0.4 fold decrease vs wild-type.
